Assay results reported in patent US10081665B2, “Peptides and combination of peptides for use in immunotherapy against various tumors” (immatics biotechnologies GmbH, priority 2015, dated 2018).

target: HLA-A*02:01 (Homo sapiens, UniProt P04439, D140Y/D185E/D98H/E176V/E277Q/G131W/G231S/I119V/I121R/I166T/I218V/L300P/L318F/N151K/N90K/P208A/P217A/Q86G/Q94H/R138H/R169H/T345S); test: MHC binding assay (UV-ligand exchange, beta2m ELISA); details: binding to HLA-A*02:01, β2m ELISA
Excerpt: Candidate peptides for T cell based therapies according to the present invention were further tested for their MHC binding capacity (affinity). The individual peptide-MHC complexes were produced by UV-ligand exchange, where a UV-sensitive peptide is cleaved upon UV-irradiation, and exchanged with the peptide of interest as analyzed. Only peptide candidates that can effectively bind and stabilize the peptide-receptive MHC molecules prevent dissociation of the MHC complexes. To determine the yield of the exchange reaction, an ELISA was performed based on the detection of the light chain (β2m) of stabilized MHC complexes. The assay was performed as generally described in Rodenko et al. (Rodenko et al., 2006).
96 well MAXISorp plates (NUNC) were coated over night with 2 ug/ml streptavidin in PBS at room temperature, washed 4× and blocked for 1 h at 37° C. in 2% BSA containing blocking buffer. Refolded HLA-A*02:01/MLA-001 monomers served as standards, covering the range of 15-500 ng/ml. Peptide-MHC monomers of the UV-exchange reaction were diluted 100 fold in blocking buffer. Samples were incubated for 1 h at 37° C., washed four times, incubated with 2 ug/ml HRP conjugated anti-82m for 1 h at 37° C., washed again and detected with TMB solution that is stopped with […]. Absorption was measured at 450 nm. Candidate peptides that show a high exchange yield (preferably higher than 50%, most preferred higher than 75%) are generally preferred for a generation and production of antibodies or fragments thereof, and/or T cell receptors or fragments thereof, as they show sufficient avidity to the MHC molecules and prevent dissociation of the MHC complexes.

Row | Substance | Peptide exchange (MHC class I binding score, peptide exchange yield)
1 | 67 (FLIENLLAA; listed as Homo sapiens) [compound 67] | +++ (≥50 = +++)
2 | 68 (QLMNLIRSV; listed as Homo sapiens) [compound 68] | +++ (≥50 = +++)
3 | 69 (LKVLKADVVL; listed as Homo sapiens) [compound 69] | ++ (≥20% = ++)
4 | 70 (GLTEKTVLV; listed as Homo sapiens) [compound 70] | ++ (≥20% = ++)
5 | 71 (HMSGKLTNV; listed as Homo sapiens) [compound 71] | ++ (≥20% = ++)
6 | 72 (VLSTRVTNV; listed as Homo sapiens) [compound 72] | ++ (≥20% = ++)
7 | 74 (GLAFLPASV; listed as Homo sapiens) [compound 74] | ++ (≥20% = ++)
8 | 75 (ALLDGALQL; listed as Homo sapiens) [compound 75] | +++ (≥50 = +++)
9 | 76 (FTAEFLEKV; listed as Homo sapiens) [compound 76] | +++ (≥50 = +++)
10 | 79 (TVLEEIGNRV; listed as Homo sapiens) [compound 79] | ++ (≥20% = ++)
11 | 80 (VLTGQVHEL; listed as Homo sapiens) [compound 80] | +++ (≥50 = +++)
12 | 81 (ILAEEPIYI; listed as Homo sapiens) [compound 81] | ++ (≥20% = ++)
13 | 83 (GLLENSPHL; listed as Homo sapiens) [compound 83] | ++ (≥20% = ++)
14 | 84 (FLLEREQLL; listed as Homo sapiens) [compound 84] | ++++ (≥75% = ++++)
15 | 85 (KLLDKPEQFL; listed as Homo sapiens) [compound 85] | ++ (≥20% = ++)
16 | 86 (SLFSNIESV; listed as Homo sapiens) [compound 86] | +++ (≥50 = +++)
17 | 87 (KLLSLLEEA; listed as Homo sapiens) [compound 87] | +++ (≥50 = +++)
18 | 88 (LLLPLELSLA; listed as Homo sapiens) [compound 88] | +++ (≥50 = +++)
19 | 90 (AILNVDEKNQV; listed as Homo sapiens) [compound 90] | ++ (≥20% = ++)

Row | Substance | Peptide exchange (MHC class I binding score, peptide exchange yield)
20 | 91 (LLPSIFLMV; listed as Homo sapiens) [compound 91] | ++ (≥20% = ++)
21 | 92 (RLFEEVLGV; listed as Homo sapiens) [compound 92] | ++++ (≥75% = ++++)
22 | 93 (RLYGYFHDA; listed as Homo sapiens) [compound 93] | ++ (≥20% = ++)
23 | 94 (YLDEVAFML; listed as Homo sapiens) [compound 94] | +++ (≥50 = +++)
24 | 95 (KLIDEDEPLFL; listed as Homo sapiens) [compound 95] | +++ (≥50 = +++)
25 | 96 (ALDTTRHEL; listed as Homo sapiens) [compound 96] | ++ (≥20% = ++)
26 | 98 (FVQEKIPEL; listed as Homo sapiens) [compound 98] | +++ (≥50 = +++)
27 | 99 (TLFGIQLTEA; listed as Homo sapiens) [compound 99] | +++ (≥50 = +++)
28 | 100 (ALQSFEFRV; listed as Homo sapiens) [compound 100] | +++ (≥50 = +++)
29 | 103 (YLADTVQKL; listed as Homo sapiens) [compound 103] | ++ (≥20% = ++)
30 | 105 (AMLASQTEA; listed as Homo sapiens) [compound 105] | ++ (≥20% = ++)
31 | 106 (VLLGSVVIFA; listed as Homo sapiens) [compound 106] | ++ (≥20% = ++)
32 | 107 (RVLPGQAVTGV; listed as Homo sapiens) [compound 107] | ++ (≥20% = ++)
33 | 108 (FIANLPPELKA; listed as Homo sapiens) [compound 108] | +++ (≥50 = +++)
34 | 109 (ILGSFELQL; listed as Homo sapiens) [compound 109] | +++ (≥50 = +++)
35 | 110 (QIQGQVSEV; listed as Homo sapiens) [compound 110] | ++ (≥20% = ++)
36 | 111 (AQLEGKLVSI; listed as Homo sapiens) [compound 111] | +++ (≥50 = +++)
37 | 112 (ILAQDVAQL; listed as Homo sapiens) [compound 112] | +++ (≥50 = +++)
38 | 113 (FLFLKEVKV; listed as Homo sapiens) [compound 113] | ++ (≥20% = ++)

Row | Substance | Peptide exchange (MHC class I binding score, peptide exchange yield)
39 | 114 (LLFPSDVQTL; listed as Homo sapiens) [compound 114] | ++ (≥20% = ++)
40 | 115 (ILHGEVNKV; listed as Homo sapiens) [compound 115] | ++ (≥20% = ++)
41 | 116 (ALLSSVAEA; listed as Homo sapiens) [compound 116] | ++ (≥20% = ++)
42 | 117 (TLLEGISRA; listed as Homo sapiens) [compound 117] | ++ (≥20% = ++)
43 | 119 (SLIEESEEL; listed as Homo sapiens) [compound 119] | ++ (≥20% = ++)
44 | 122 (SIIDTELKV; listed as Homo sapiens) [compound 122] | +++ (≥50 = +++)
45 | 123 (QTAPEEAFIKL; listed as Homo sapiens) [compound 123] | + (≥10% = +)
46 | 124 (ALLLRLFTI; listed as Homo sapiens) [compound 124] | ++ (≥20% = ++)
47 | 125 (AALEVLAEV; listed as Homo sapiens) [compound 125] | +++ (≥50 = +++)
48 | 126 (QLREAFEQL; listed as Homo sapiens) [compound 126] | +++ (≥50 = +++)
49 | 128 (SILTNISEV; listed as Homo sapiens) [compound 128] | ++ (≥20% = ++)
50 | 129 (KMASKVTQV; listed as Homo sapiens) [compound 129] | ++ (≥20% = ++)
51 | 130 (QLYGSAITL; listed as Homo sapiens) [compound 130] | +++ (≥50 = +++)
52 | 131 (SLYPHFTLL; listed as Homo sapiens) [compound 131] | +++ (≥50 = +++)
53 | 132 (ALLNNVIEV; listed as Homo sapiens) [compound 132] | +++ (≥50 = +++)
54 | 133 (FLDGRPLTL; listed as Homo sapiens) [compound 133] | ++ (≥20% = ++)
55 | 134 (SLYKSFLQL; listed as Homo sapiens) [compound 134] | ++ (≥20% = ++)
56 | 136 (LLWDAPAKC; listed as Homo sapiens) [compound 136] | +++ (≥50 = +++)
57 | 137 (KLIYKDLVSV; listed as Homo sapiens) [compound 137] | ++ (≥20% = ++)
